The values that follow come from the RNAGym collection of RNA variant scans (doi:10.7554/elife.80360).

B1: HDV Ribozyme (parent)
chain: GGCCGGCAUGGUCCCAGCCUCCUCGCUGGCGCCGGCUGGGCAACAUUCCGAGGGGACCGUCCCCUCGGUAAUGGCGAAUGGGACCCA
B2: CPEB3 Ribozyme (parent)
chain: GGGGGCCACAGCAGAAGCGUUCACGUCGCGGCCCCUGUCAGAUUCUGGUGAAUCUGCGAAUUCUGCUGU

The first series covers variants of B1. Briefly: self-cleavage, relative activity (ratio to wild type); higher = more cleavage; co-transcriptional.
On to GGCCGGCAUGGUCCCAGCCUCCUCGCUGGCGCCGGCUGGGCAACAUUCCGAGGGGACCGUCCCCUCGGUAAUGGCGAAUGGGACCCU [A87U], for which the self-cleavage came to 1.03.
For GGCCGGCAUGGUCCCAGCCUCCUCGCUGGCGCCGGCUGGGCAACAUUCCGAGGGGACCGUCCCCUCGGUAAUGGCGAAUGGGACCCC [A87C], the self-cleavage is 1.01.
As to GGCCGGCAUGGUCCCAGCCUCCUCGCUGGCGCCGGCUGGGCAACAUUCCGAGGGGACCGUCCCCUCGGUAAUGGCGAAUGGGACCCG [A87G], the self-cleavage amounted to 0.984.
With GGCCGGCAUGGUCCCAGCCUCCUCGCUGGCGCCGGCUGGGCAACAUUCCGAGGGGACCGUCCCCUCGGUAAUGGCGAAUGGGAUCCU [C84U A87U], the self-cleavage came to 0.946.
With GGCCGGCAUGGUCCCAGCCUCCUCGCUGGCGCCGGCUGGGCAACAUUCCGAGGGGACCGUCCCCUCGGUAAUGGCGAAUGGGAUCCC [C84U A87C], the self-cleavage was 0.749.
Consider GGCCGGCAUGGUCCCAGCCUCCUCGCUGGCGCCGGCUGGGCAACAUUCCGAGGGGACCGUCCCCUCGGUAAUGGCGAAUGGGACCGC [C86G A87C], for which the self-cleavage is 1.04.
For GGCCGGCAUGGUCCCAGCCUCCUCGCUGGCGCCGGCUGGGCAACAUUCCGAGGGGACCGUCCCCUCGGUAAUGGCGAAUGGGACACC [C85A A87C], the self-cleavage amounted to 0.862.
Turning to GGCCGGCAUGGUCCCAGCCUCCUCGCUGGCGCCGGCUGGGCAACAUUCCGAGGGGACCGUCCCCUCGGUAAUGGCGAAUGGGACACU [C85A A87U], the self-cleavage was determined as 1.06.
With GGCCGGCAUGGUCCCAGCCUCCUCGCUGGCGCCGGCUGGGCAACAUUCCGAGGGGACCGUCCCCUCGGUAAUGGCGAAUGGGACCUC [C86U A87C], the self-cleavage came out at 0.926.
For GGCCGGCAUGGUCCCAGCCUCCUCGCUGGCGCCGGCUGGGCAACAUUCCGAGGGGACCGUCCCCUCGGUAAUGGCGAAUGGGACCUG [C86U A87G], the self-cleavage worked out at 0.942.
Still for that read-out and setting: with GGCCGGCAUGGUCCCAGCCUCCUCGCUGGCGCCGGCUGGGCAACAUUCCGAGGGGACCGUCCCCUCGGUAAUGGCGAAUGGGACUCC [C85U A87C] the figure was 0.933; with GGCCGGCAUGGUCCCAGCCUCCUCGCUGGCGCCGGCUGGGCAACAUUCCGAGGGGACCGUCCCCUCGGUAAUGGCGAAUGGGACUCG [C85U A87G], 0.963; with GGCCGGCAUGGUCCCAGCCUCCUCGCUGGCGCCGGCUGGGCAACAUUCCGAGGGGACCGUCCCCUCGGUAAUGGCGAAUGGGACGUA [C85G C86U], 0.858.
Still for that read-out and setting: with GGCCGGCAUGGUCCCAGCCUCCUCGCUGGCGCCGGCUGGGCAACAUUCCGAGGGGACCGUCCCCUCGGUAAUGGCGAAUGGGACCAG [C86A A87G] the figure was 0.804.
GGCCGGCAUGGUCCCAGCCUCCUCGCUGGCGCCGGCUGGGCAACAUUCCGAGGGGACCGUCCCCUCGGUAAUGGCGAAUGGGACCAC [C86A A87C]: the self-cleavage amounted to 0.855.
In the case of GGCCGGCAUGGUCCCAGCCUCCUCGCUGGCGCCGGCUGGGCAACAUUCCGAGGGGACCGUCCCCUCGGUAAUGGCGAAUGGGACGCG [C85G A87G], the self-cleavage is 0.919.
Regarding GGCCGGCAUGGUCCCAGCCUCCUCGCUGGCGCCGGCUGGGCAACAUUCCGAGGGGACCGUCCCCUCGGUAAUGGCGAAUGGGAUGCA [C84U C85G], the self-cleavage stood at 0.923.
For the variant GGCCGGCAUGGUCCCAGCCUCCUCGCUGGCGCCGGCUGGGCAACAUUCCGAGGGGACCGUCCCCUCGGUAAUGGCGAAUGGGAUACA [C84U C85A], the self-cleavage stood at 0.877.
On to GGCCGGCAUGGUCCCAGCCUCCUCGCUGGCGCCGGCUGGGCAACAUUCCGAGGGGACCGUCCCCUCGGUAAUGGCGAAUGGGAUUCA [C84U C85U], for which the self-cleavage was determined as 0.604.
For GGCCGGCAUGGUCCCAGCCUCCUCGCUGGCGCCGGCUGGGCAACAUUCCGAGGGGACCGUCCCCUCGGUAAUGGCGAAUGGGACUUA [C85U C86U], the self-cleavage is 0.895.
With GGCCGGCAUGGUCCCAGCCUCCUCGCUGGCGCCGGCUGGGCAACAUUCCGAGGGGACCGUCCCCUCGGUAAUGGCGAAUGGGACAGA [C85A C86G], the self-cleavage was determined as 0.791.
With GGCCGGCAUGGUCCCAGCCUCCUCGCUGGCGCCGGCUGGGCAACAUUCCGAGGGGACCGUCCCCUCGGUAAUGGCGAAUGGGACAUA [C85A C86U], the self-cleavage stood at 1.05.
As for GGCCGGCAUGGUCCCAGCCUCCUCGCUGGCGCCGGCUGGGCAACAUUCCGAGGGGACCGUCCCCUCGGUAAUGGCGAAUGGGAUCUA [C84U C86U], the self-cleavage turned out to be 0.604.
Take GGCCGGCAUGGUCCCAGCCUCCUCGCUGGCGCCGGCUGGGCAACAUUCCGAGGGGACCGUCCCCUCGGUAAUGGCGAAUGGGAUCGA [C84U C86G]: the self-cleavage is 0.907.
Take GGCCGGCAUGGUCCCAGCCUCCUCGCUGGCGCCGGCUGGGCAACAUUCCGAGGGGACCGUCCCCUCGGUAAUGGCGAAUGGGAUCCA [C84U]: the self-cleavage stood at 0.804.

Another series covers variants of B2. The series is described as above.
Turning to AGGGGCCACAGCAGAAGCGUUCACGUCGCGGCCCCUGUCAGAUUCUGGUGAAUCUGCGAAUUCUGUUGU [G1A C66U], the self-cleavage turned out to be 0.0966.
For AGGGGCCACAGCAGAAGCGUUCACGUCGCGGCCCCUGUCAGAUUCUGGUGAAUCUGCGAAUUCUGAUGU [G1A C66A], the self-cleavage was 0.0751.
As to AGGGGCCACAGCAGAAGCGUUCACGUCGCUGCCCCUGUCAGAUUCUGGUGAAUCUGCGAAUUCUGCUGU [G1A G30U], the self-cleavage was 0.0869.
Turning to AGGGGCCACAGCAGAUGCGUUCACGUCGCGGCCCCUGUCAGAUUCUGGUGAAUCUGCGAAUUCUGCUGU [G1A A16U], the self-cleavage was 0.0347.
Take AGGGGCCACAGCAGACGCGUUCACGUCGCGGCCCCUGUCAGAUUCUGGUGAAUCUGCGAAUUCUGCUGU [G1A A16C]: the self-cleavage was 0.028.
As for AGGGGCAACAGCAGAAGCGUUCACGUCGCGGCCCCUGUCAGAUUCUGGUGAAUCUGCGAAUUCUGCUGU [G1A C7A], the self-cleavage was found to be 0.155.
For AGGGGCUACAGCAGAAGCGUUCACGUCGCGGCCCCUGUCAGAUUCUGGUGAAUCUGCGAAUUCUGCUGU [G1A C7U], the self-cleavage was 0.0863.
Consider AGGGGCCACAGCAGAAGCGUUCACGUCGCGGCCCCUGUCAGAUUCUGGUGAAUUUGCGAAUUCUGCUGU [G1A C54U], for which the self-cleavage is 0.0835.
Regarding AGGGGCCACAGCAGAAGCCUUCACGUCGCGGCCCCUGUCAGAUUCUGGUGAAUCUGCGAAUUCUGCUGU [G1A G19C], the self-cleavage is 0.0333.
Still for that read-out and setting: the same measure for AGGGGCCACAGCAGAAGCAUUCACGUCGCGGCCCCUGUCAGAUUCUGGUGAAUCUGCGAAUUCUGCUGU [G1A G19A]: 0.0657; for AGGGGCCACAGCAGAAGCUUUCACGUCGCGGCCCCUGUCAGAUUCUGGUGAAUCUGCGAAUUCUGCUGU [G1A G19U]: 0.0319.
